Laboratory results from patent publication US20090062190A1, “Transcriptional Regulation of Cytokines by LITAF and STAT (6)(B)” (priority 2005, published 2009).

Columns and labels:
THP-1 cells [1] = assay: Human cytokine antibody array of conditioned medium from transfected THP-1 cells; assay type: cell-based; details: single transfection
Source text: (§1) Since both LITAF and STAT6(B) were found in the nucleus (FIG. 5), it was further investigated whether they act separately or in concert in mediating activation of TNF-α. While studying the complex, a cytokine array was employed to look at effects on other cytokines (FIG. 6a-6c.). The assay was preformed as follows. Using an empty vector as a control (FIG. 6b1), DNA of LITAF (full length, FIG. 6b2), STAT6(B) (full length; FIG. 6b3) or both full length of LITAF+STAT6(B) (FIG. 6b4), respectively, was transfected or co-transfected into THP-1 cells. Conditioned medium from each treated cell type was then prepared and incubated with membranes containing an array of 44 human protein cytokine antibodies (FIG. 6a). Autoradiographs were scanned, and the density of each cytokine at the corresponding position was determined. […] The relative intensities of each cytokine were normalized to control spots on the same membrane. Major increases or decreases among cytokines are represented graphically in FIG. 6c. […] In order to confirm these findings at the protein level we selected the four most strongly affected cytokines, IL-1α, IL-10, MCP-2 and RANTES and, under the same experimental conditions, measured their protein levels by Western blots.

[2] = test system: Porcine aortic endothelial (PAE) cells expressing VEGFR-2 spheroids; assay: In vitro angiogenesis/tubulogenesis assay with supernatants of transfected THP-1 cells; assay type: cell-based; details: supernatant from transfected THP-1 cells, 2 days
Description: In Vitro Angiogenesis/Tubulogenesis assay of VEGF. To expand the observations that STAT6(B) is a potent stimulator of VEGF, and that the LITAF-STAT6(B) complex is inhibitory, culture supernatant fluids of LITAF-, STAT6(B)- or LITAF-STAT6(B)-transfected THP1 cells were tested in an in vitro angiogenesis/tubulogenesis assay. The assay was preformed as follows. Porcine aortic endothelial (PAE) cells expressing VEGFR-2 spheroids were generated as described in the art (Mayer and Rahimi, Ann. NY Acad. Sci, 995:200-207, 2003). A defined number of cells were suspended in DMEM containing 1% fetal bovine serum and 0-0.24% (w/v) carboxymethylcellulose (4000 centipoise) in non-adherent round-bottom 96-well plates under standard cell culture conditions. After 24 hours all cells formed one single spheroid per well (about 750 cells/spheroid). Spheroids were cultured for 2 days before using them in the in vitro angiogenesis assay in the following manner Spheroids containing about 750 cells were embedded in collagen gels. Eight volumes of collagen were mixed with 1 volume of 10×HEPES-buffered saline solution containing 10% 10×DMEM with phenol red. […]
It was determined whether VEGF, induced by STAT6(B), was active and capable of inducing angiogenesis and that the LITAF-STAT6(B) complex effect would inhibit this activity. […]

TNF-α promoter = TNF-α promoter luciferase assay in transfected U2OS cells; assay type: cell-based, human; details: transfection alone
Description: In order to characterize the functional importance of LITAF in the LITAF/STAT6(B) complex, the effect of the complex was examined, with and without silenced LITAF, on TNF-α promoter activity. U2OS cells containing the TNF-promoter linked to luciferase were transiently transfected with LITAF alone, STAT6(B) alone, or both DNAs as described. TNF-α promoter activity was analyzed via luciferase activity. […] The TNF-α concentrations in the supernatants of these transfected THP-1 cells was also measured. […] They further indicate that LITAF might play a leading role in cytokine regulation after the LITAF-STAT6(B) complex translocates to the nucleus in the cells.

THP-1 cells [3] = assay: Western blot of cytokine protein levels in transfected THP-1 cells (FIG. 6d); assay type: cell-based, human; details: overexpression in THP-1 cells
Source text: as §1

VEGF promoter = VEGF promoter activity / VEGF expression in transfected U2OS cells; assay type: cell-based, human; details: transient transfection into U2OS cells with pcVEGF or pEVEGF
Description: To determine that this activation occurred at the transcriptional level, VEGF promoter activity assays were performed. A full length VEGF sequence, with or without its enhancer element (−2040˜+1), named pcVEGF or pEVEGF, was cloned into pcDNA3 plasmid. The cloned DNA with LITAF and/or STAT6(B) DNAs were transiently co-transfected into U2OS cells as described in FIG. 11a.

MCP-1 promoter = assay: Luciferase assay of MCP-1 promoter activity after transient transfection (FIG. 16); assay type: cell-based
Source text: To show this hypothesis, monocyte chemoattractant protein-1 (MCP-1), an important component of the inflammatory process, is selected to determine whether its LPS-triggered transcriptional regulation parallels observations for TNF. Recent studies have shown that the MCP-1 promoter activity can be regulated by NF-KB, STAT1, CEB/P homologous protein (CHOP), heme oxygenase-1 (HO-1) or activated protein C (APC) (Kim, et al, Clin Exp Immunol, 140:450-460, 2005; Jaruga, et al., Am J Physiol Gastrointest Liver Physiol, 287:G471-479, 2004, Abraham, et al., J Neuroimmunol, 160:219-221, 2005; Kanakiriya, et al., Am J Physiol Renal Physiol, 284:F:546-554, 2003). However, the precise LPS signaling pathways leading to MCP-1 induction have not been fully identified. In Examples 1-3, above, the regulation of LPS-induced inflammatory cytokine expression was shown. […] Thus, CTCCC represents a specific sequence in cytokine promoters to which LITAF binds for activity. […] Thus, short peptides with amino acids designed and synthesized based on the potential binding domain of LITAF and STAT6(B) jointly enhance MCP-1 promoter activity.

MCP-1 promoter activity / MCP-1 expression (MCP-1 promoter) | Molecule | effect on GRO (cytokine array) (THP-1 cells [1]) | effect on IL-1α (cytokine array) (THP-1 cells [1]) | effect on IL-10 (cytokine array) (THP-1 cells [1]) | effect on RANTES (cytokine array) (THP-1 cells [1]) | in vitro angiogenesis/tubulogenesis [2] | TNF-α promoter luciferase activity (TNF-α promoter) | protein levels of IL-1α, IL-10, MCP-2 and RANTES by Western blot (THP-1 cells [3]) | VEGF gene expression / transcription (VEGF promoter) | effect on TNF-α (cytokine array) (THP-1 cells [1])
significantly up-regulated | STAT6(B): novel protein, Signal transducer and activator of transcription, SEQ ID NO: 2; full length DNA transfected (protein, listed as Homo sapiens) MARRNPSPPLQRLRDWGHHHCPCHPGPGWLSTDGEHPAILCQRPVHSLTGGPNPGSCSAQKSLSQEAQGGGFPEPLQAWAGTGCSDSFLSPTSSLLPAALLSLPVCHPDVTPYFIAVLLLLPHDPCPPFPPPFLPNPRALHGCLFLLTTAEQMGKDGRGYVPATIKMTVERGVWWYGQWVGQGLVVLICRKEGWHQPLVSHMYLLPSSRDQPLPTPELQMPTMVPSYDLGMAPDSSMSMQLGPDMVPQVYPPHSHSIPPYQGLSPEESVNVLSAFQEPHLQMPPSLGQMSLSFDQPHPQGLLPCQPQEHAVSSPDPLLCSDVTTVEDSCLSQPVTAFPQGTWIGEDIFPPLLPPTEQDLTKLLLEGQGESGGGSLGAQPLLQPSHYGQSGISMSHMDLRANPSW | up-regulated | up-regulated | up-regulated | up-regulated | stimulated | did not substantially change | modest induction of all except MCP-2 | significantly upregulated | 
significantly up-regulated | LITAF: LPS-induced TNF-α factor, SEQ ID NO: 1; full length DNA transfected for overexpression (protein, listed as Homo sapiens) MSVPGPYQAATGPSSAPSAPPSYEETVAVNSYYPTPPAPMPGPTTGLVTGPDGKGMNPPSYYTQPAPIPNNNPITVQTVYVQHPITFLDRPIQMCCPSCNKMIVSQLSYNAGALTWLSCGSLCLLGVHSGLLLHPLLRGCPAGRGPLLSQLQSSPGHLQAFVGLSQTQREPGAAGSPFHLSSSFTPGGGSALVVSPLQGAHLHVFFWGEYVAKLTNLQTPEIAAWSRA |  | modestly up-regulated |  |  |  |  | not altered | did not have any effect | modestly up-regulated
 | STAT6(A): known gene STAT6 (GenBank), referred to as STAT6(A) in this study (protein, UniProt P42226 2-847, looked up) Signal transducer and …: SLWGLVSKMPPEKVQRLYVDFPQHLRHLLGDWLESQPWEFLVGSDAFCCNLASALLSDTVQHLQASVGEQGEGSTILQHISTLESIYQRDPLKLVATFRQILQGEKKAVMEQFRHLPMPFHWKQEELKFKTGLRRLQHRVGEIHLLREALQKGAEAGQVSLHSLIETPANGTGPSEALAMLLQETTGELEAAKALVLKRIQIWKRQQQLAGNGAPFEESLAPLQERCESLVDIYSQLQQEVGAAGGELEPKTRASLTGRLDEVLRTLVTSCFLVEKQPPQVLKTQTKFQAGVRFLLGLRFLGAPAKPPLVRADMVTEKQARELSVPQGPGAGAESTGEIINNTVPLENSIPGNCCSALFKNLLLKKIKRCERKGTESVTEEKCAVLFSASFTLGPGKLPIQLQALSLPLVVIVHGNQDNNAKATILWDNAFSEMDRVPFVVAERVPWEKMCETLNLKFMAEVGTNRGLLPEHFLFLAQKIFNDNSLSMEAFQHRSVSWSQFNKEILLGRGFTFWQWFDGVLDLTKRCLRSYWSDRLIIGFISKQYVTSLLLNEPDGTFLLRFSDSEIGGITIAHVIRGQDGSPQIENIQPFSAKDLSIRSLGDRIRDLAQLKNLYPKKPKDEAFRSHYKPEQMGKDGRGYVPATIKMTVERDQPLPTPELQMPTMVPSYDLGMAPDSSMSMQLGPDMVPQVYPPHSHSIPPYQGLSPEESVNVLSAFQEPHLQMPPSLGQMSLPFDQPHPQGLLPCQPQEHAVSSPDPLLCSDVTMVEDSCLSQPVTAFPQGTWIGEDIFPPLLPPTEQDLTKLLLEGQGESGGGSLGAQPLLQPSHYGQSGISMSHMDLRANPSW |  |  |  |  |  |  | not altered |  | 
